Laboratory results from article PMC3172256.

Target: CD16.7-PC1-WT (human) (UniProt P08637)
Test: co-IP

Row | fold coprecipitation above the background of untransfected cell lysates [fold] | Substance
1 | 1.3 | Rab11, human, endogenous (from UniProt P62491 1-216) (natural protein)
2 | 2 | Rab8, human, endogenous (from UniProt P61006 1-207) (natural protein)
